Results published in publication PMC12236388, “Investigating the co-assembly of amphipathic peptides” (Faraday Discussions, 2025).

T1: K(FEFK)2K
T1 construct: designed amphipathic self-assembling peptide, L-amino acids; printed in short form K(FEFK)2K and written out here; forms beta-sheet-rich fibres and a hydrogel at pH 7; also called base peptide; peptide 1; source: synthetic peptide; bought: LifeTein Inc. (HCl salt, nominal purity 95%)
T1 peptide: KFEFKFEFKK


Target: T1, K(FEFK)2K
Experiment: FRET or BRET; FITC/Dabcyl quenching in mixed hydrogels: base peptide 3.75 mg mL^-1 plus secondary peptide, total 7.5 mg mL^-1 (mass ratio 1:1), pH 7, water; powders mixed before dissolving, pH raised stepwise with NaOH; quenching percentage compared with base hydrogels at 3.75 and 7.5 mg mL^-1

Row | fluorescence quenching percentage [%] | binding result (both partners purified) | Molecule
1 | 30 | – | K(FEFK)2K (peptide)
2 | – | binds | FEFKFEFKK (designed amphipathic peptide; printed in short form (FEFK)2K and written out here; source: synthetic peptide; bought: LifeTein Inc. (HCl salt, nominal purity 95%)) [(FEFK)2K]
